T1: human CD39 (Homo sapiens, UniProt P49961)
T1 sequence (P49961 1-510): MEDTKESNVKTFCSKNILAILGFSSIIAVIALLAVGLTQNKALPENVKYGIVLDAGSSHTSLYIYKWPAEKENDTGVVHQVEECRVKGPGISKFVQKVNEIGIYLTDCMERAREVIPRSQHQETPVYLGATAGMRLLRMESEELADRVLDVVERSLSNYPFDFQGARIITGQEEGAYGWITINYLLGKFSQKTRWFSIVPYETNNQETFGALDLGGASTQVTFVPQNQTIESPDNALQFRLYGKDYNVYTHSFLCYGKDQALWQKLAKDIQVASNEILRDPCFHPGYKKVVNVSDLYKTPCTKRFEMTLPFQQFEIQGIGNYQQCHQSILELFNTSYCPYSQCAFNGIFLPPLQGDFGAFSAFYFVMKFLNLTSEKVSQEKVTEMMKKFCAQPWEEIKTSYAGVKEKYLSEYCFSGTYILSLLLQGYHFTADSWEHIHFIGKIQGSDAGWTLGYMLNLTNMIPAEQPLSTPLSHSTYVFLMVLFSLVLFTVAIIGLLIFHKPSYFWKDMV

T2: Human CD39 antigen (Homo sapiens, UniProt P49961)
T2 sequence (P49961 1-510): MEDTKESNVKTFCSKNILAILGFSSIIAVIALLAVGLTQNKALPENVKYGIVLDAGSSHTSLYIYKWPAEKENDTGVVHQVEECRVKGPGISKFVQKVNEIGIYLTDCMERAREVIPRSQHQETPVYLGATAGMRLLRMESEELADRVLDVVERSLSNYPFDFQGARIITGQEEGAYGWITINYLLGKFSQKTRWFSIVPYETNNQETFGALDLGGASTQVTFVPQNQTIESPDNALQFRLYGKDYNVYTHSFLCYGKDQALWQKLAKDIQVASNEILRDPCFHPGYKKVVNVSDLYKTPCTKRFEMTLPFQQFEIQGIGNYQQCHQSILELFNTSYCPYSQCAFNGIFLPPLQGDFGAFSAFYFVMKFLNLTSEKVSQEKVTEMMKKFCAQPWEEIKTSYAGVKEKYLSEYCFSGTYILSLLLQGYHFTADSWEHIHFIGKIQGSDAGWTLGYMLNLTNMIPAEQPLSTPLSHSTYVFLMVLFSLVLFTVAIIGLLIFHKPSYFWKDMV

B1: HuP4_IB_sc: humanized scFvFc obtained by humanizing P4_sc (antibody, V domains shown)
VH: QVQLLESGPELVKPSATLSITCTVSGFSLTNYGVHWIRQAPGKGLEWLGVILRRGSTDYNAAFMSRFTISKDNSKNQVYFKLRSVTAEDTAVYYCAKTAVVAGDYFDYWGQGTMVTVSS
VL: DIQMTQSHSTLSLSVGDRVTITCKASQNVGTNVAWYQQKPGQPPKALIYSASYRYSGVPSRFSGSGSGTDFTLTISSVQAEDVAVYYCQQYNSYPLTFGPGTKLEIK
modifications: left off: another chain or arm of the molecule; a dimerising Fc or GST; small tags and cut ends
notes: humanized scFvFc obtained by humanizing P4_sc
B2: P4_sc: anti-CD39 scFvFc (Fc silent) from phage display (antibody, V domains shown)
VH: QVQLKESGPSLVQPSQSLSITCTVSGFSLTNYGVHWVRQSPGKGLEWLGVILRRGSTDYNAAFMSRLSITKDNSKSQVFFKMNSLQADDTAIYYCAKTAVVAGDYFDYWGQGTTLTVSS
VL: DIVMTQSHKFMSTSVGDRVSVTCKASQNVGTNVAWYQQKPGQSPKALIYSASYRYSGVPDRFTGSGSGTDFTLTISNVQSEDLAEYFCQQYNSYPLTFGTGTKLEIK
modifications: left off: another chain or arm of the molecule; a dimerising Fc or GST; small tags and cut ends
notes: anti-CD39 scFvFc (Fc silent) from phage display
B3: T-31414h1lala: anti-CD39 antibody with variable regions described in US2019/0062448, IgG1-lala constant region (antibody, V domains shown)
VH: QVQLVQSGAEVKKPGASVKVSCKASGYTFKSYEMHWVRQAPGQGLEWMGRINPSVGSTWYAQKFQGRVIMIRDTSTSTVYMELSSLRSEDTAVYYCARGKREGGTEYLRNWGQGTLVTVSS
VL: EIVLIQSPGILSLSPGERATLSCRASQSVSSSYLAWYQQKPGQAPRLLIYGASSRATGIPDRFSGSGSGTDFTLTISRLEPEDFAVYYCQQYHSYITFGGGTKVEIK
modifications: IgG1 LALA constant regions; T-31414 VH; T-31414 VL
notes: anti-CD39 antibody with variable regions described in US2019/0062448, IgG1-lala constant region

Tests used:
[1] = molecular target: T1, human CD39; test: activity to inhibit CD39 enzyme (ATP hydrolysis by CD39-expressing cells, CellTiter-Glo); type: cell-based; parameters: CD39^hi-expressing human melanoma cell line SK-MEL-28 (ATCC, HTB-72) or human ovarian adenocarcinoma cell line OAW-42; endogenous in cells; host or cells: SK-MEL-28 (ATCC, HTB-72) or OAW-42 (CLS, 300304); conditions: SK-MEL-28 or OAW-42 cells, ATP 10 μM
Protocol: Two thousand SK-MEL-28 cells (ATCC, HTB-72), a CD39′-expressing line, suspended in 50 μl EMEM (Fujifilm, 055-08975) were seeded onto a 96-well V-bottom plate and incubated at 37° C. for 30 minutes with 150 μl of culture supernatant of single B cells. The cells were washed once with DPBS (Nacalai Tesque, 14249-24), then 100 μl of 5 μM ATP was added per well, and the mixture was incubated at 20° C. for 30 minutes. After centrifugation, 50 μl of the supernatant was separated, 50 μl CellTiter-Glo (Promega, G9243) was added and stirred, and after incubation at room temperature for 10 min, the amount of ATP was measured by chemiluminescence while using a microplate reader. The ability of B cell culture supernatant to inhibit CD39-mediated ATP hydrolysis was evaluated based on the amount of residual ATP.
The antibodies obtained in the above experiments were used to measure activity to inhibit CD39 enzyme by using the following procedure. […] After centrifugation, 50 μl of the supernatant was separated, 50 μl CellTiter-Glo was added and stirred, and after incubation at room temperature for 10 minutes, the level of chemiluminescence was measured using a microplate reader. Based on the amount of ATP consumed by SK-MEL-28 or OAW-42 cells, the ability of the antibody to inhibit CD39-mediated ATP hydrolysis was evaluated. […]

[2] = system: Cynomolgus monkey CD39; test: CD39 binding analysis (FCM) using Cynomolgus monkey CD39-overexpressing cells; conditions: 293T-cynoCD39 cells, 2 μg/ml antibody
Protocol: Binding to target antigen-expressing cells was analyzed using Cynomolgus monkey CD39-overexpressing cells. This analysis was used to check cross-reactivity. The Cynomolgus monkey CD39-overexpressing cells were generated using a lentiviral vector system (OriGene, PS100069). Lentiviral particles carrying the Cynomolgus monkey CD39 gene (Gene ID: 102132860) as the target gene together with the puromycin resistance gene were generated and used to infect HEK293T cells therewith. Then, the cells were cultured in the presence of puromycin. HEK293T cells (293T-cynoCD39) in which the target gene was integrated into the genome and which became positive for Cynomolgus monkey CD39 were collected and used for FCM analysis. The cells were reacted with 2 μg/ml test antibody or isotype control antibody, stained with a fluorescence-labeled secondary antibody, and evaluated for antibody binding based on the fluorescence intensity obtained by flow cytometry analysis.

[3] = molecular target: T2, Human CD39 antigen; test: affinity by surface plasmon resonance (SPR) analysis; conditions: Biacore 8K, 1:1 binding model
Protocol: Kinetics of each antibody against their target antigen were measured using Biacore 8K (Cytiva). Each antibody to be measured was immobilized on a sensor chip (CM5) using a Mouse Antibody Capture Kit, type 2 (Cytiva, 29215281) for mouse antibodies and a Human Antibody Capture Kit, Type 2 (Cytiva, 26234600) for chimeric and humanized antibodies, respectively. Human CD39 antigen was subjected to 4-step dilution from […] to prepare each solution, the contact time was set to 120 seconds, the dissociation time was set to 600 seconds, and the flow rate was set to 30 μl/min. Under these conditions, HBS-EP+ was used as the running buffer, and each sample was then analyzed using the 1:1 binding model of multi-cycle kinetics.

[4] = molecular target: T1, human CD39; test: CD39 binding analysis (FCM) using human CD39-overexpressing cells; conditions: 293T-hCD39 or Jurkat-hCD39 cells
Protocol: 3.1 CD39 binding analysis (FCM analysis) (using human CD39) Binding to target antigen-expressing cells was analyzed by FCM analysis using human CD39-overexpressing cells. The human CD39-overexpressing cells were generated using a lentiviral vector system (OriGene, PS100069). Lentiviral particles carrying the human CD39 gene (Gene ID: 953) as the target gene together with the puromycin resistance gene were generated and used to infect HEK293T or Jurkat cells therewith. Then, the cells were cultured in the presence of puromycin. HEK293T or Jurkat cells ([…] or Jurkat-hCD39) in which the target gene was integrated into the genome and which became positive for human CD39 were collected and used for FCM analysis. Test or isotype control antibodies at a final concentration of 2 μg/mL or at the concentrations indicated in the figure were reacted with 1×10^5 cells for 15 minutes at 4° C., followed by washing twice with 0.5% BSA, 2 mM EDTA, and D-PBS. After washing, a fluorescent-labeled secondary antibody (anti-human IgG Fc, HP6017) was added, and the cells were stained at 4° C. for 15 minutes under light-shielded conditions, followed by washing twice in a similar manner. After addition of 7AAD (BioLegend, 420404), fluorescence intensity was measured using a flow cytometer (FACSVerse, BD). Antibody binding was evaluated based on the fluorescence intensity obtained.

[5] = system: human lung cancer cell line NCI-H292; test: anti-tumor activity: NCI-H292 growth with stimulated PBMCs and ATP (IncuCyte); type: cell-based; conditions: NCI-H292 with PBMCs E/T 2, ATP 500 μM
Protocol: The human lung cancer cell line NCI-H292 having red fluorescent protein (RFP) was seeded on a 96-well plate and cultured overnight. The next day, after removal of the medium, IL-2 (Miltenyi, 130-097-745) at a final concentration of 30 IU as suspended in X-VIVO-15™ medium (Lonza, 04-418Q) and an anti-human CD39 antibody or isotype control antibody at a final concentration of 0.3 to 100 μg/mL were added and the mixture was incubated at 37° C. for 30 minutes. Then, PBMCs from healthy volunteers stimulated with Dynabeads™ Human T-Activator CD3/CD28 (VERITAS, DB11131) for 10 days were added at an E/T ratio of 2 and the mixture was incubated at 37° C. for 30 minutes. […] This made it possible to evaluate the anti-tumor activity of the antibody due to its ability to promote the cytotoxic activity of PBMCs.

Molecule | CD39 inhibitory activity [1] | binding to monkey CD39 [2] | affinity for human CD39 (KD) [3] | affinity for human CD39 on the cell surface [4] | growth rate of cancer cells [5]
B1 | favorable CD39 inhibitory activity |  |  |  | 
B2 | activity to inhibit human CD39 | bound to monkey CD39 | favorable affinity | favorable affinity | 
B3 |  |  |  |  | approximately 0.9

Reference: patent US20250215105A1, “ANTI-CD39 ANTIBODY” (BrightPath Biotherapeutics Co., Ltd., priority 2022, published 2025)
